The supplement of paper PMC10567573

B1: GNB5 (parent)
chain: YYPSGDAFASGSDDATCRLYDLRA
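Further: lentivirally expressed fusions sorted by FACS into six bins by GFP to DsRed ratio, PSI derived from sequencing read proportions per bin multiplied by bin number.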

Variants of: B1
Experiment: protein stability index of a GFP-peptide fusion (GPS, HEK-293T) (PSI 1-6); higher = more stable
Conditions: c terminus: a fixed tail appended
S12N showed a protein stability index of 2.41. S12E gave a protein stability index of 2.89. For S12A, the protein stability index was 2.76. Work on S12F yielded a protein stability index of 2.41. In the case of S12D, the protein stability index is reported as 3.23. S12W gave a protein stability index of 2.74. Variant S12P has a protein stability index of 2.17. In the case of S12R, the protein stability index is reported as 2.17. S12M showed a protein stability index of 2.13. In the case of S12I, the protein stability index is reported as 2.24. For S12C, the protein stability index was 2.98. Work on S12K yielded a protein stability index of 2.21. For S12L, the protein stability index was 2.16. Variant S12T has a protein stability index of 2.79. S12Q showed a protein stability index of 2.08. S12H gave a protein stability index of 2.92. With S12Y the protein stability index was 2.98. S12G gave a protein stability index of 1.74. In the case of S12V, the protein stability index is reported as 2.04. For D13W, the protein stability index was 1.65. In the case of D13E, the protein stability index is reported as 2.27. In the case of D13T, the protein stability index is reported as 1.76. In the case of D13A, the protein stability index is reported as 1.86. In the case of D13Y, the protein stability index is reported as 2.11. Variant D13L has a protein stability index of 1.93. Variant D13H has a protein stability index of 2.23. Work on D13Q yielded a protein stability index of 2.2. D13K gave a protein stability index of 2.25. Variant D13F has a protein stability index of 1.63. For D13V, the protein stability index was 1.78. For D13S, the protein stability index was 2.28. D13I gave a protein stability index of 2.27. For D13G, the protein stability index was 1.89. For D13N, the protein stability index was 2.38. Variant D13M has a protein stability index of 1.66. Work on D13R yielded a protein stability index of 1.88. D13P showed a protein stability index of 2.19. Work on D13C yielded a protein stability index of 1.56. Variant T16V has a protein stability index of 1.95. Variant T16N has a protein stability index of 2.69. With T16M the protein stability index was 2.31. T16W gave a protein stability index of 1.91. For T16F, the protein stability index was 2.32. For T16C, the protein stability index was 2.27. Variant T16I has a protein stability index of 2.18. In the case of T16A, the protein stability index is reported as 2.96. For T16Y, the protein stability index was 2.52. Variant T16H has a protein stability index of 2.37. Variant T16L has a protein stability index of 2.32. In the case of T16S, the protein stability index is reported as 2.42. Variant T16G has a protein stability index of 2.46. Variant T16D has a protein stability index of 2.91. Work on T16P yielded a protein stability index of 2.54. For T16K, the protein stability index was 3.11. With T16E the protein stability index was 2.79. Variant T16R has a protein stability index of 2.94. In the case of T16Q, the protein stability index is reported as 2.88. Work on C17K yielded a protein stability index of 2.69. Work on C17A yielded a protein stability index of 2.42. C17R showed a protein stability index of 2.62. C17G gave a protein stability index of 2.85. In the case of C17Q, the protein stability index is reported as 2.9. Variant C17S has a protein stability index of 2.85. Work on C17M yielded a protein stability index of 2.46. C17P gave a protein stability index of 2.62. For C17W, the protein stability index was 2.48. C17L gave a protein stability index of 2.87. Variant C17F has a protein stability index of 2.07. With C17V the protein stability index was 2.85. For C17Y, the protein stability index was 2.23. C17D gave a protein stability index of 3.3. Variant C17N has a protein stability index of 2.8. C17H gave a protein stability index of 2.56. C17E gave a protein stability index of 3.36. For C17I, the protein stability index was 2.89. With C17T the protein stability index was 2.61. D14W gave a protein stability index of 1.22. Work on D14H yielded a protein stability index of 2.2. In the case of D14L, the protein stability index is reported as 1.92. In the case of D14R, the protein stability index is reported as 1.9. Variant D14T has a protein stability index of 2.02. For D14N, the protein stability index was 1.98. Work on D14M yielded a protein stability index of 2.21. For D14Q, the protein stability index was 2.27. Variant D14I has a protein stability index of 2.65. D14E showed a protein stability index of 2.55. D14F gave a protein stability index of 2.12. In the case of D14K, the protein stability index is reported as 1.93. D14P showed a protein stability index of 2.12. Variant D14A has a protein stability index of 1.91. For D14V, the protein stability index was 2.27. Work on D14C yielded a protein stability index of 2.39. D14G showed a protein stability index of 2.52. Work on D14Y yielded a protein stability index of 1.58. In the case of D14S, the protein stability index is reported as 1.94. With G11I the protein stability index was 1.89. For G11H, the protein stability index was 2.44. Work on G11L yielded a protein stability index of 2.89. G11Q gave a protein stability index of 2.14. G11V showed a protein stability index of 1.94. G11A showed a protein stability index of 2.23. In the case of G11S, the protein stability index is reported as 2.08. In the case of G11F, the protein stability index is reported as 1.99. In the case of G11W, the protein stability index is reported as 2.11. For G11E, the protein stability index was 2.81. For G11Y, the protein stability index was 1.98. With G11T the protein stability index was 2.28. Variant G11R has a protein stability index of 1.83. Work on G11M yielded a protein stability index of 1.66. With G11K the protein stability index was 1.94. Work on G11N yielded a protein stability index of 2.64. In the case of G11D, the protein stability index is reported as 2.74. Variant G11P has a protein stability index of 2.31. In the case of G11C, the protein stability index is reported as 2.09. Work on S10L yielded a protein stability index of 2.05. In the case of S10D, the protein stability index is reported as 3.28. S10K showed a protein stability index of 2.25. With S10T the protein stability index was 2.68. Variant S10P has a protein stability index of 2.46. In the case of S10N, the protein stability index is reported as 2.64. S10M showed a protein stability index of 2.16. For S10E, the protein stability index was 3. Variant S10Q has a protein stability index of 2.54. For S10I, the protein stability index was 1.79. S10C gave a protein stability index of 2.01. In the case of S10G, the protein stability index is reported as 2.36. For S10R, the protein stability index was 2.1. With S10Y the protein stability index was 2.4. Variant S10F has a protein stability index of 2.03. With S10A the protein stability index was 2.25. For S10W, the protein stability index was 2.23. Variant S10H has a protein stability index of 2.56. Work on S10V yielded a protein stability index of 2.18. With A9T the protein stability index was 2.36. Variant A9W has a protein stability index of 1.72. With A9V the protein stability index was 2.32. Variant A9Y has a protein stability index of 2.04. In the case of A15F, the protein stability index is reported as 2.1. A15G gave a protein stability index of 2.87. A15M gave a protein stability index of 2.36. Work on A15S yielded a protein stability index of 2.25. A15H showed a protein stability index of 2.05. Work on A15E yielded a protein stability index of 2.75. Variant A15W has a protein stability index of 2.56. Work on A15I yielded a protein stability index of 1.97. A15T showed a protein stability index of 2.26. Work on A15L yielded a protein stability index of 2.15. For A15R, the protein stability index was 2.24. In the case of A15Y, the protein stability index is reported as 2.21. Variant A15N has a protein stability index of 2.61. Work on A15V yielded a protein stability index of 2.72. With A15Q the protein stability index was 2.62. A15P gave a protein stability index of 2.63. A15C gave a protein stability index of 1.98. In the case of A15D, the protein stability index is reported as 3.4. In the case of A15K, the protein stability index is reported as 2.35. Variant R18C has a protein stability index of 2.29. R18I showed a protein stability index of 2.42. R18F showed a protein stability index of 2.84. Variant R18L has a protein stability index of 2.45. For R18K, the protein stability index was 3.04. With R18E the protein stability index was 3.25. R18A showed a protein stability index of 3.06. R18M showed a protein stability index of 2.2. Work on R18G yielded a protein stability index of 2.85. Work on R18D yielded a protein stability index of 3.35. R18H showed a protein stability index of 3.23.
